From the supplement of paper PMC7877785
± gives the uncertainty stated by the source.

Assay: self-splicing fitness, log relative to wild type (ln ratio); higher = more splicing; Tetrahymena group I intron in knt gene, E. coli kanamycin selection, DiMSum; sequences stand for … in CUCUCU…GGAGGGAAAAGUUAUCAGGCAUGCACCUGGUAGCUAGUCUUUAAACCAAUAGAUUGCAUCGGUUUAAAAGGCAAGACCGUCAAAUUGCGGGAAAGGGGUCAACAGCCGUUCAGUACCAAGUCUCAGGGGAAACUUUGAGAUGGCCUUGCAAAGGGUAUGGUAAUAAGCUGACGGACAUGGUCCUAACCACGCAGCCAAGUCCUAAGUCAACAGAUCUUCUGUUGAUAUGGAUGCAGUUCACAGACUAAAUGUCGGUCGGGGAAGAUGUAUUCUUCUCAUAAGAUAUAGUCGGACCUCUCCUUAAUGGGAGCUAGCGGAUGAAGUGAUGCAACACUGGAGCCGCUGGGAACUAAUUUGUAUGCGAAAGUAUAUUGAUUAGUUUUGGAGUACUCGUGGUCG
Method in brief: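 A randomised library covering all eight P1ex-region intron nucleotides was built with the intron in the knt kanamycin-resistance gene on pET-22b(+) and held in E. coli BL21(DE3). Cells were grown overnight at 37°C or 30°C on LB agar, with or without 25 μg/mL kanamycin, plus 100 μg/mL carbenicillin, 50 μM IPTG and 0.2% rhamnose, and pooled colonies were amplicon-sequenced on an Illumina HiSeq 2500. DiMSum fitness is the error-weighted combination of wild-type-normalised replicate fold changes, kanamycin versus none.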

Sequence | self-splicing fitness (ln) (30 °C) | self-splicing fitness (ln) (37 °C)
UCUUAGCAAUAUUACGGCGA | -0.253 ± 0.15 | -0.295 ± 0.13
UCUUAGCAAUAUUACGGGAC | -3.78 ± 0.24 | -1.8 ± 0.32
UCUUAGCAAUAUUACGGGCC | -3.6 ± 0.32 | -1.41 ± 0.27
UCUUAGCAAUAUUACGGGGC | -3.82 ± 0.3 | -3.03 ± 0.27
UCUUAGCAAUAUUACGUAAU | -5 ± 0.45 | -2.58 ± 0.2
UCUUAGCAAUAUUACGUACG | -1.58 ± 0.083 | -0.522 ± 0.088
UCUUAGCAAUAUUACGUCGU | -2.2 ± 0.12 | -1.92 ± 0.12
UGAAAGCAAUAUUACGAACU | -0.526 ± 0.088 | 0.612 ± 0.1
UGAAAGCAAUAUUACGAAGG | -2.92 ± 0.21 | -1.48 ± 0.25
UGAAAGCAAUAUUACGAAUC | -3.58 ± 0.21 | -2.53 ± 0.21
UGAAAGCAAUAUUACGAUAU | -2.68 ± 0.18 | -1.21 ± 0.13
UGAAAGCAAUAUUACGAUUC | -2.53 ± 0.18 | -2 ± 0.22
UGAAAGCAAUAUUACGCACU | -0.504 ± 0.094 | 0.371 ± 0.11
UGAAAGCAAUAUUACGCCGA | -1.61 ± 0.14 | -0.339 ± 0.14
UGAAAGCAAUAUUACGCCUA | 0.122 ± 0.093 | 0.207 ± 0.098
UGAAAGCAAUAUUACGCGCG | -0.237 ± 0.079 | -0.153 ± 0.1
UGAAAGCAAUAUUACGCGCU | -0.84 ± 0.11 | 0.297 ± 0.14
UGAAAGCAAUAUUACGCGGA | -1.66 ± 0.13 | -1.52 ± 0.13
UGAAAGCAAUAUUACGCGGG | -2.8 ± 0.13 | -0.83 ± 0.11

Sequence | self-splicing fitness (ln) (30 °C) | self-splicing fitness (ln) (37 °C)
UGAAAGCAAUAUUACGCGGU |  | -1.78 ± 0.36
UGAAAGCAAUAUUACGCGUA | -1.31 ± 0.12 | -0.174 ± 0.13
UGAAAGCAAUAUUACGGAAG | -1.78 ± 0.11 | -1.15 ± 0.14
UGAAAGCAAUAUUACGGCAA | -0.125 ± 0.078 | 0.497 ± 0.1
UGAAAGCAAUAUUACGGGCC | -3.48 ± 0.23 | -1.32 ± 0.22
UGAAAGCAAUAUUACGGGCG | -0.0565 ± 0.085 | 0.348 ± 0.11
UGAAAGCAAUAUUACGGUCG | 0.0681 ± 0.051 | 0.137 ± 0.067
UGAAAGCAAUAUUACGUAUG | -1.53 ± 0.098 | -1.21 ± 0.14
UGAAAGCAAUAUUACGUCUU | -1.69 ± 0.074 | -0.659 ± 0.073
UGAAAGCAAUAUUACGUGCG | -0.35 ± 0.065 | -0.395 ± 0.073
UGAAAGCAAUAUUACGUGUA | -1.5 ± 0.091 | -1.08 ± 0.11
UGACAGCAAUAUUACGAAAU | -3.12 ± 0.19 | -2.74 ± 0.24
UGACAGCAAUAUUACGAAGG | -3.84 ± 0.23 | -1.36 ± 0.17
UGACAGCAAUAUUACGAGGA | -2.51 ± 0.16 | -3.06 ± 0.22
UGACAGCAAUAUUACGAUCC | -0.422 ± 0.09 | 0.083 ± 0.11
UGACAGCAAUAUUACGCAGU | -2.63 ± 0.15 | -2.13 ± 0.27
UGACAGCAAUAUUACGCCCU | 0.0425 ± 0.16 | 0.0969 ± 0.14
UGACAGCAAUAUUACGGACC | -0.664 ± 0.12 | -0.748 ± 0.21
UGACAGCAAUAUUACGGCGC | -2.47 ± 0.15 | -1.25 ± 0.15
